Measurements published in US20080181886A1 (Genentech, published 2008).

T1: Murine APRIL (mouse, UniProt Q9D777 105-241, limits assumed)
T1 sequence (looked up): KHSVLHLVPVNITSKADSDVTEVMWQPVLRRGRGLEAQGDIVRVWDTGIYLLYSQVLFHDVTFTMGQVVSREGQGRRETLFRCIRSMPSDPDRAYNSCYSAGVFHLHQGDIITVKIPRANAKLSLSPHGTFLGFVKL


Legend:
human BAFF = human BAFF (human, UniProt Q9Y275 82-285, limits assumed); assay: NNS library, phage display;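 further: ligand versus display occurrence-to-degeneracy ratio and higher means enriched by binding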
Protocol: (§1) This new phage library was subjected to sorting against either BAFF, APRIL or the display target antibody. After 3 rounds of sorting, approximately 48 clones were picked from each selection and the DNA sequences of the phage clones were determined. […] The normalized F′ value corrects for display bias and is calculated as the percent occurrence to percent degeneracy ratio for ligand selection divided by the percent occurrence to percent degeneracy ratio for display efficiency. Percent occurrence is calculated by dividing the number of times a particular amino acid appeared at a particular position by the total number of amino acids sequenced at that position followed by multiplying by 100. Percent degeneracy is calculated by dividing the degeneracy in code for a particular amino acid divided by the total degeneracy possible at that position followed by multiplying by 100 (e.g., if only A, G and I were selected, total degeneracy possible would be 5).

Murine APRIL = molecular target: T1, Murine APRIL; assay: NNS library, phage display;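 further: ligand versus display occurrence-to-degeneracy ratio and higher means enriched by binding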
Protocol: as §1

Chain of human BAFF (Q9Y275 82-285 limits assumed): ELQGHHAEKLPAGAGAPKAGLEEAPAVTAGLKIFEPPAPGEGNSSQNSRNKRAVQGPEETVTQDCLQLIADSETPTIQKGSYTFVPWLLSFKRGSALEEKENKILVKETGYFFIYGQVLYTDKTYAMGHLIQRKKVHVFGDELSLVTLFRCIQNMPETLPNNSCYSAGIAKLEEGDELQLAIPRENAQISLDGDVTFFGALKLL

Row | Binder | F' BAFF (human BAFF) | F' APRIL (Murine APRIL)
1 | SLSCRKEQGKTYDHLLRDCISCASICGQHPKQCAYFCENKLR (receptor, phage library variant, format as m9) [TACI_d2 F78T] | 0 | 1
2 | SLSCRKEQGKFFDHLLRDCISCASICGQHPKQCAYFCENKLR (receptor, phage library variant, format as m9) [TACI_d2 Y79F] | 5 | 4
3 | SLSCRKEQGKFMDHLLRDCISCASICGQHPKQCAYFCENKLR (receptor, phage library variant, format as m9) [TACI_d2 Y79M] | 0 | 0
4 | SLSCRKEQGKFYDHLLLDCISCASICGQHPKQCAYFCENKLR (receptor, phage library variant, format as m9) [TACI_d2 R84L] | 2 | 3
5 | SLSCRKEQGKFLDHLLRDCISCASICGQHPKQCAYFCENKLR (receptor, phage library variant, format as m9) [TACI_d2 Y79L] | 1 | 0
6 | SLSCRKEQGKFCDHLLRDCISCASICGQHPKQCAYFCENKLR (receptor, phage library variant, format as m9) [TACI_d2 Y79C] | 0 | 0
7 | SLSCRKEQGKFYDHLLFDCISCASICGQHPKQCAYFCENKLR (receptor, phage library variant, format as m9) [TACI_d2 R84F] | 7 | 9
8 | SLSCRKEQGKFYDHLLRDCISCASRCGQHPKQCAYFCENKLR (receptor, phage library variant, format as m9) [TACI_d2 I92R] | 0 | 0
9 | SLSCRKEQGKFYDHLLRDCISCASFCGQHPKQCAYFCENKLR (receptor, phage library variant, format as m9) [TACI_d2 I92F] | 0 | 0
10 | SLSCRKEQGKFYDHLLVDCISCASICGQHPKQCAYFCENKLR (receptor, phage library variant, format as m9) [TACI_d2 R84V] | 2 | 4
11 | SLSCRKEQGKFYDHLLRDCISCASPCGQHPKQCAYFCENKLR (receptor, phage library variant, format as m9) [TACI_d2 I92P] | 0 | 0
12 | SLSCRKEQGKFIDHLLRDCISCASICGQHPKQCAYFCENKLR (receptor, phage library variant, format as m9) [TACI_d2 Y79I] | 6 | 4
13 | SLSCRKEQGKFYDHLLRDCISCASDCGQHPKQCAYFCENKLR (receptor, phage library variant, format as m9) [TACI_d2 I92D] | 0 | 0
14 | SLSCRKEQGKFYDHLLRDCISCASSCGQHPKQCAYFCENKLR (receptor, phage library variant, format as m9) [TACI_d2 I92S] | 0 | 0
15 | SLSCRKEQGKFYDHLLDDCISCASICGQHPKQCAYFCENKLR (receptor, phage library variant, format as m9) [TACI_d2 R84D] | 0 | 9
16 | SLSCRKEQGKFYDHLLRDCISCASNCGQHPKQCAYFCENKLR (receptor, phage library variant, format as m9) [TACI_d2 I92N] | 0 | 0
17 | SLSCRKEQGKFYDHLLHDCISCASICGQHPKQCAYFCENKLR (receptor, phage library variant, format as m9) [TACI_d2 R84H] | 1 | 0
18 | SLSCRKEQGKFKDHLLRDCISCASICGQHPKQCAYFCENKLR (receptor, phage library variant, format as m9) [TACI_d2 Y79K] | 0 | 0
19 | SLSCRKEQGKFYDHLLKDCISCASICGQHPKQCAYFCENKLR (receptor, phage library variant, format as m9) [TACI_d2 R84K] | 1 | 0
20 | SLSCRKEQGKYYDHLLRDCISCASICGQHPKQCAYFCENKLR (receptor, phage library variant, format as m9) [TACI_d2 F78Y] | 41 | 61
21 | SLSCRKEQGKFYDHLLWDCISCASICGQHPKQCAYFCENKLR (receptor, phage library variant, format as m9) [TACI_d2 R84W] | 0 | 9
22 | SLSCRKEQGKFYDHLLQDCISCASICGQHPKQCAYFCENKLR (receptor, phage library variant, format as m9) [TACI_d2 R84Q] | 0 | 0

Row | Binder | F' BAFF (human BAFF) | F' APRIL (Murine APRIL)
23 | SLSCRKEQGKFYDHLLEDCISCASICGQHPKQCAYFCENKLR (receptor, phage library variant, format as m9) [TACI_d2 R84E] | 0 | 3
24 | SLSCRKEQGKWYDHLLRDCISCASICGQHPKQCAYFCENKLR (receptor, phage library variant, format as m9) [TACI_d2 F78W] | 0 | 0
25 | SLSCRKEQGKFGDHLLRDCISCASICGQHPKQCAYFCENKLR (receptor, phage library variant, format as m9) [TACI_d2 Y79G] | 0 | 0
26 | SLSCRKEQGKFYDHLLIDCISCASICGQHPKQCAYFCENKLR (receptor, phage library variant, format as m9) [TACI_d2 R84I] | 0 | 0
27 | SLSCRKEQGKFYDHLLNDCISCASICGQHPKQCAYFCENKLR (receptor, phage library variant, format as m9) [TACI_d2 R84N] | 1 | 0
28 | SLSCRKEQGKFYDHLLMDCISCASICGQHPKQCAYFCENKLR (receptor, phage library variant, format as m9) [TACI_d2 R84M] | 7 | 18
29 | SLSCRKEQGKFYDHLLRDCISCASMCGQHPKQCAYFCENKLR (receptor, phage library variant, format as m9) [TACI_d2 I92M] | 0 | 0
30 | SLSCRKEQGKFYDHLLRDCISCASKCGQHPKQCAYFCENKLR (receptor, phage library variant, format as m9) [TACI_d2 I92K] | 0 | 0
31 | SLSCRKEQGKFYDHLLCDCISCASICGQHPKQCAYFCENKLR (receptor, phage library variant, format as m9) [TACI_d2 R84C] | 0 | 0
32 | SLSCRKEQGKFYDHLLRDCISCASHCGQHPKQCAYFCENKLR (receptor, phage library variant, format as m9) [TACI_d2 I92H] | 0 | 0
33 | SLSCRKEQGKFYDHLLTDCISCASICGQHPKQCAYFCENKLR (receptor, phage library variant, format as m9) [TACI_d2 R84T] | 3 | 0
34 | SLSCRKEQGKFYDHLLRDCISCASLCGQHPKQCAYFCENKLR (receptor, phage library variant, format as m9) [TACI_d2 I92L] | 0 | 2
35 | SLSCRKEQGKFYDHLLRDCISCASGCGQHPKQCAYFCENKLR (receptor, phage library variant, format as m9) [TACI_d2 I92G] | 0 | 0
36 | SLSCRKEQGKFYDHLLSDCISCASICGQHPKQCAYFCENKLR (receptor, phage library variant, format as m9) [TACI_d2 R84S] | 0 | 0
37 | SLSCRKEQGKFYDHLLRDCISCASCCGQHPKQCAYFCENKLR (receptor, phage library variant, format as m9) [TACI_d2 I92C] | 0 | 0
38 | SLSCRKEQGKFEDHLLRDCISCASICGQHPKQCAYFCENKLR (receptor, phage library variant, format as m9) [TACI_d2 Y79E] | 0 | 8
39 | SLSCRKEQGKFYDHLLRDCISCASQCGQHPKQCAYFCENKLR (receptor, phage library variant, format as m9) [TACI_d2 I92Q] | 0 | 0
40 | SLSCRKEQGKFYDHLLRDCISCASECGQHPKQCAYFCENKLR (receptor, phage library variant, format as m9) [TACI_d2 I92E] | 0 | 0
41 | SLSCRKEQGKFYDHLLYDCISCASICGQHPKQCAYFCENKLR (receptor, phage library variant, format as m9) [TACI_d2 R84Y] | 1 | 0
42 | SLSCRKEQGKFHDHLLRDCISCASICGQHPKQCAYFCENKLR (receptor, phage library variant, format as m9) [TACI_d2 Y79H] | 0 | 0
43 | SLSCRKEQGKFYDHLLRDCISCASWCGQHPKQCAYFCENKLR (receptor, phage library variant, format as m9) [TACI_d2 I92W] | 0 | 0
44 | SLSCRKEQGKFYDHLLRDCISCASYCGQHPKQCAYFCENKLR (receptor, phage library variant, format as m9) [TACI_d2 I92Y] | 0 | 0
